# B1: SEQ ID NO: 54: RNA aptamer listed for fluorophore DFHO (nucleic acid)
# chain: GGGAGACGCAACUGAAUGAAGCGAGGAAGGAGGUCUGAGGAGGUCACUGCUUCGACAGUGGGGCGUUUUCCCUGGGGGUGUUGAUCCGUAACUAGUCGCGUCAC
# modifications: listed as RNA, chemistry not given here
# B2: SEQ ID NO: 51: RNA aptamer listed for fluorophore DFHO (nucleic acid)
# chain: GGGAGACGCAACUGAAUGAAGUUGGCCCAUGAUAGAAAGCAGGGUGCUGCUUCGGCAGUUGUCGGAGGGUGGGGGGAUUGACUAUCCGUAACUAGUCGCGUCAC
# modifications: listed as RNA, chemistry not given here
# B3: SEQ ID NO: 52: RNA aptamer listed for fluorophore DFHO (nucleic acid)
# chain: GGGCGACUCACUAUAGGGAGACGCAACUGAAUGAAGCGAAGAAGGAGGUCUGAGGAGGUCACUGCUUCGGCAGUGGGGCGUUUUCCCUGGGGGUGUUGAUCCGUAACUAGUCGCGUCAC
# modifications: listed as RNA, chemistry not given here
# B4: SEQ ID NO: 53: RNA aptamer listed for fluorophore DFHO (nucleic acid)
# chain: GGGAGACGCAACUGAAUGAAAGACCUGACGAGGGUGAAGCGGUUGUCUGCUUCGGCAGCAUUGAAAGGGUGGGGUGUAGGAUGGUCCGUAACUAGUCGCGUCAC
# modifications: listed as RNA, chemistry not given here
# Experiment: Emission and excitation of aptamer-DFHO complexes
# Type: physicochemical
# Details: aptamer with DFHO
Molecule,Em,Ex
B1,Em = 545 nm,Ex = 500 nm
B2,Em = 550 nm,Ex = 480 nm
B3,Em = 540 nm,Ex = 490 nm
B4,Em = 560 nm,Ex = 520 nm
